Residue numbers refer to the chain shown, from its start. Names may count otherwise.
Key:
OiTyrA (OiTyrAa) = target: T1, OiTyrA (OiTyrAa) (Brucella intermedia, UniProt C4WNJ2); type: biochemical
T1 construct: gene OINT_2001142

[1] = tested on: T2, O=C(O)C(=O)CC1(C(=O)O)C=CC(O)C=C1; assay: A340 reduced cofactor formation, Michaelis-Menten fit; type: biochemical, Methanothrix harundinacea; details: 25 mM HEPES pH 7.6, 50 mM KCl, 10% ethylene glycol
T2 construct: full-length, codon-optimized, N-terminal 6xHis tag (pET28a), E. coli Rosetta2 (DE3), HisTrap purified; monofunctional enzyme
Excerpt: (§1) A340 reduced cofactor formation, Michaelis-Menten fit on MhTyrA (MhTyrAp)

[2] = tested on: T3, N[C@@H](CC1(C(=O)O)C=CC(O)C=C1)C(=O)O; assay: as above; type: biochemical, Methanothrix harundinacea; details: 0.8 mM preferred cofactor (NADP+), 25 mM HEPES pH 7.6, 50 mM KCl, 10% ethylene glycol
T3 construct: full-length, codon-optimized, N-terminal 6xHis tag (pET28a), E. coli Rosetta2 (DE3), HisTrap purified; monofunctional enzyme
Excerpt: as §1

[3] = substrate: N[C@@H](CC1(C(=O)O)C=CC(O)C=C1)C(=O)O; assay: as above; type: biochemical, Sediminispirochaeta smaragdinae; details: 25 mM HEPES pH 7.6, 50 mM KCl, 10% ethylene glycol
Excerpt: (§2) A340 reduced cofactor formation, Michaelis-Menten fit on SsTyrA (SsTyrAa)

[4] = substrate: O=C(O)C(=O)CC1(C(=O)O)C=CC(O)C=C1; assay: as above; type: biochemical, Sediminispirochaeta smaragdinae; details: 0.8 mM preferred cofactor, 25 mM HEPES pH 7.6, 50 mM KCl, 10% ethylene glycol
Excerpt: as §2

[5] = 0.8 mM preferred cofactor (NADP+)
[6] = 0.8 mM preferred cofactor (NAD+ slightly preferred)

T1 sequence (C4WNJ2 1-269 limits assumed): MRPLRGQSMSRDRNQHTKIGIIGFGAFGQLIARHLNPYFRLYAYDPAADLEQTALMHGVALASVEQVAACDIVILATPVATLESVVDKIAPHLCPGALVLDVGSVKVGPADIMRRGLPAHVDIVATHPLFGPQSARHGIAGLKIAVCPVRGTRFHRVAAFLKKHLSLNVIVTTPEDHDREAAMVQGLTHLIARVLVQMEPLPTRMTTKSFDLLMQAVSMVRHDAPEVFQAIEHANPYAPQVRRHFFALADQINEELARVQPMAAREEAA

How did the “HPLC product assay, 45 min” value (OiTyrA (OiTyrAa)) turn out when NC(=O)c1ccc[n+]([C@@H]2O[C@H](COP(=O)(O)OP(=O)(O)OC[C@H]3O[C@@H](n4cnc5c(N)ncnc54)[C@H](O)[C@@H]3O)[C@@H](O)[C@H]2O)c1 [NAD^+] was run?
Its value is “strongly preferred NAD^+ over NADP^+ cofactor”.

How did the “HPLC product assay, 45 min” value (OiTyrA (OiTyrAa)) turn out when N[C@@H](CC1(C(=O)O)C=CC(O)C=C1)C(=O)O (some centres unmarked) [arogenate] was run?
The value was “E. coli cell lysate expressing OiTyrA had ADH but not PDH activity”.

“MhTyrA (MhTyrAp) (Methanothrix harundinacea)” was tested. Which Km ([1]; 0.8 mM NADP+) did it give?
The Km was 378 ± 20 µM.

What about the kcat ([1]; 0.8 mM NADP+) of the same molecule?
The kcat was 2.44 ± 0.38 s⁻¹.

And the kcat/Km ([1]; 0.8 mM NADP+)?
The kcat/Km was 6440 ± 540 M⁻¹ s⁻¹.

With “MhTyrA (MhTyrAp) (Methanothrix harundinacea; Q227E)” as the molecule, how does the Km [2] read?
The Km was 3290 ± 220 µM.

What about the kcat [2] of the same molecule?
Its kcat is 0.704 ± 0.03 s⁻¹.

And the kcat/Km [2]?
Its kcat/Km is 213 ± 50 M⁻¹ s⁻¹.

And the Km [1, 5]?
The Km was 2669 ± 320 µM.

What about the kcat [1, 5] of the same molecule?
The kcat was 0.285 ± 0.02 s⁻¹.

What about the kcat/Km [1, 5] of the same molecule?
The kcat/Km was 107 ± 40 M⁻¹ s⁻¹.

B1: SsTyrA (SsTyrAa) (Sediminispirochaeta smaragdinae DSM 11293) (protein)
chain: MVEHTVGIYGLGRFGSFWAKSLAASGLKVIGYNRSKRALPEGVVSGSETEVLSCNTLFYCVAISSFEEVLSRTAAKIGKHTLVFDTCSVKVEPVRTMERLLPQGCTFAGSHPMFGPDSASEGMDGLPMVLCPGRDDEGKVDFWRHHFSKMGLRVIEITADRHDKEAAYTQGITHVVGRILGELDLHESEIATSGYKRLLQVREQTCNDPLQLFIDLQRYNPYTHGMRMELTSALEQIMTLFAQADLPPDRP
notes: full-length, codon-optimized, N-terminal 6xHis tag (pET28a), E. coli Rosetta2 (DE3), HisTrap purified
What does the source list for B1?
Km [3, 6]: 901 ± 150 µM; kcat [3, 6]: 3.44 ± 0.31 s⁻¹; kcat/Km [3, 6]: 4030 ± 1010 M⁻¹ s⁻¹

B2: SsTyrA (SsTyrAa) (Sediminispirochaeta smaragdinae DSM 11293; D208N) (protein)
chain: B1 chain with D208N
notes: as for B1
What does the source list for B2?
Km ([3]; 0.8 mM preferred cofactor): 847 ± 160 µM; kcat ([3]; 0.8 mM preferred cofactor): 0.45 ± 0.01 s⁻¹; kcat/Km ([3]; 0.8 mM preferred cofactor): 568 ± 140 M⁻¹ s⁻¹; Km [4]: 1742 ± 630 µM; kcat [4]: 0.863 ± 0.12 s⁻¹; kcat/Km [4]: 587 ± 400 M⁻¹ s⁻¹
